Results: the DeepSol protein solubility set

Test: soluble on expression in E. coli; label from the status in PepcDB or PDB records

| Sequence | soluble on expression in E. coli |
| --- | --- |
| MWKRLCAGLSCRKFINQVTMTSVNKNRKSRDENEMAKYNEKELADTSKFLSFVLRHKPEAIGIVLDREGWADIDKLILCAQKAGKRLTRALLDTVVATSDKKRFSYSSDGRCIRAVQGHSTSQVAISFAEKTPPQFLYHGTASRFLDEIKKQGLIAGERHYVHLSADEATARKVGARHGSPVILTVKAQEMAKRGLPFWQAENGVWLTSTVAVEFLEWLEHHHHHH | not soluble |
| MTVSPVPSPKGRVLIAGATGFIGQFVATASLDAHRPTYILARPGPRSPSKAKIFKALEDKGAIIVYGLINEQEAMEKILKEHEIDIVVSTVGGESILDQIALVKAMKAVGTIKRFLPSEFGHDVNRADPVEPGLNMYREKRRVRQLVEESGIPFTYICCNSIASWPYYNNIHPSEVLPPTDFFQIYGDGNVKAYFVAGTDIGKFTMKTVDDVRTLNKSVHFRPSCNCLNINELASVWEKKIGRTLPRVTVTEDDLLAAAGENIIPQSVVAAFTHDIFIKGCQVNFSIDGPEDVEVTTLYPEDSFRTVEECFGEYIVKMEEKQPTADSAIANTGPVVGMRQVTATCA | soluble |
| KDMFNTKSSNGKLRIEDASHNARKLGLAPSSTDEKKIRDLYGDSLTYEQYLEYLTMCVHDRDNMEELIKMFSHFDNNSSGFLTKNQMKNILTTWGDALTEQEANDALNAFSSEDRINYKLFCEDIL | soluble |
| MSLEMEHINENTIRVLIGNEDLADRGITFLDLLGNHKDVENFFYSILEEVDVEDEFQGSEAVTFQVLPKNDGLELFISKNVAMDDLSSLEGLSEVNADVSELIRKQIEADKAAADELDEMEATDETNRNVIFELDNFEAMIQLSKEVFMQSVLTNLYTYNDRYYLQVLFLTDELEKTNVDNEIAQILEFAHKTTVTQDTLVEYGTCIMERSALELTRYYFNDEGHHHHHH | soluble |
| MDTQKLIEVLAREVLKEIAKRENQKLSENNEIISKKSVVTAFLGNDEVLKDELKKEASFMENIKLDSTWEEIGQCENKKRLVVSTLGINELIELSQGRKSVITEFLFNDGEVVLVEEGLEYKKYTKPAALINLYDGYLDKVREFGIKVVKRTEVKNVFCTKEKVYLKGLVTERRLRKLKLKNQTLEVDAKSKITSLAMDYIKENSIELCYERRQ | not soluble |
| MRGSHHHHHHTDPALRAAIIPKNYARLESGYREKALKIYPWVCGRCSREFVYSNLRELTVHHIDHDHTNNPEDGSNWELLCLYCHDHEHSKYTEADQYGTTVIAGEDAQKDVGEAKYNPFADLKAMMNKKKGLCGR | soluble |
| MNMYSMPGYFQNMPTIGKELVNPNPENEQEIKAVESDIHESIKKALDAGITSEEKLNERGQLSAMQRINALIDPGTWCPLNSLFNPENNKFGTTNIVNGLGRVDGKWVYIVASDNKKMAGAWVPGQAENLIRCSDAAKMMHLPLIYLLNCSGVEFPNQDKVYPNRRGGGTPFFRNSELNQLGIPVIVGIYGTNPAGGGYHSISPTILIAHQDANMAVGGAGILSGMNPKGYIDDEAAEQIIAAQIENSKLKVPAPGSVPIHYDETGFFREVYQNDLGVIDGIKKYISYLPAYNLEFFRVDTPKAPQLPAEDLYSIIPMNQKRPYDIYEVIARLFDNSEFSEYKKGYGPEMVTGLAKVNGLLVGVIANVQGLLMNYPEYKQNSVGIGGKLYRQGLIKMNEFVTLCARDRIPLIWLQDTTGIDVGDEAEKAELLGLGQSLIYSIENSKLPSLEITIRKASAAAHYVLGGPQGNNTNVFSIGTGACEYYVMPGETAANAMYSRKLVKAKKAGEDLQPIIGKMNDMIQMYTDKSRPKYCTEKGMVDEIVDMTEVRPYIQAFTEAAYQNPQSICPMHQMLTPRSTREFETFGK | soluble |
| MGSDKIHHHHHHMLATYLKSLNENDRSLYNEGEDVIQGLIQSPKTLPPKYFYDDYGSELFEQICELSEYYPTRTEAWILRQYADEIAQITGNCELVELGSGSSTKTLFLLDAYQKIASHCRYIPIDVSHGILKSSVLKLQQKYPNFFVEGLIGTYEQALIKLESTFAASRMIFFLGSSLGNFNPRECDDFLRQITRTLQAGDYFLLGIDLQKPKEILEPAYNDSQGVTAAFNLNILSHLNWRFQGNFDLSLFTHQAIYNENDAQIEMYLHCQKSHEVSLEALDLQVSFAGGESILTEISRKFDLVNMQKQLETHGLKTLKTWTDPNQWFGLILCQA | not soluble |
| MVGIRRNKGHGEATIFTLRELADATNNFSTECLLGRGGFGSVYKAFLNDRQVVAVKQLDLNGLQGNREFLVEVLMLSLLHHPNLVKLFGYCVDGDQRLLIYEYMPLGSLEDRLHDLRPGQEPLDWTTRMKIAADAAAGLEYLHDEAIPAVIYRDIKPSNILLGEGYNAKLSDFGLAKLGPVGDKTHVTTRVMGTHGYCAPEYLSTGKLTIKSDIYSFGVVFLELITGRRALDSNRPPDEQDLVAWARPLFKDQRKFPKMADPSLHGHFPKRGLFQALAIAAMCLQEKAKNRPSIREVAVALSYLASQTHESQNTAARHTLPGPSVPRVLDNQINQDTSLPSQHGVHMPPLAGTDHMVQEVKENCRSSSHRPGRGRVTPNGADRERALAEANVWVEAWRRQEKTSKMR | not soluble |
| MGSDKIHHHHHHMMIATFSLSPAGAKRLIARGLINEAVFQQAMTHGRMIIGVGTTNSYIAEELGLLSADEKPRFAAGIVSGGVPCVTAADTRFTSICLENGRIIKDISWEEFIMDFNRDDVFVKGANAFDADGNAGVLLANPRGGTVGGSFGVLAARGCKLLVPVGHEKLIPSCTAAARLMGINRLDYSLGQRCGLALLPAGFAQIYTEIDALKTLFAVEATIVAAGGVSGSEGSVMLAIDGPDEAVKDALALARTLLKEKPLSVPRQSCKDCQASGNCVFKEIPPID | not soluble |
| MSEPSEKKQKVATSSLEQLKKAGTHVVADSGDFEAISKYEPQDSTTNPSLILAASKLEKYARFIDAAVEYGRKHGKTDHEKIENAMDKILVEFGTQILKVVPGRVSTEVDARLSFDKKATVKKALHIIKLYKDAGVPKERVLIKIASTWEGIQAARELEVKHGIHCNMTLLFSFTQAVACAEANVTLISPFVGRIMDFYKALSGKDYTAETDPGVLSVKKIYSYYKRHGYATEVMAASFRNLDELKALAGIDNMTLPLNLLEQLYESTDPIENKLNSESAKEEGVEKVSFINDEPHFRYVLNEDQMATEKLSDGIRKFSADIEALYKLVEEKMLEHHHH | soluble |
| MKLSPATKSFIGKTVDISTFAIQWGFVPFVVYLGFKKGAEPMPNGQILPLSAMSLLWG | not soluble |
| MGSDKIHHHHHHMIKVEIDEGSGFCFGVVTAIHKAEEELAKGETLYCLGDIVHNSREVERLKAMGLITINRDEFRQLRNAKVLLRAHGEPPETYQIAHKNNIEIIDATCPVVLRLQKRIKQEFRKEDFEEKQIVIYGKNGHAEVLGLVGQTGGQAIVIESAEEAKKLDFTKSIRLFSQTTKSLDEFQEIVEYIKLHISPDATFEYYDTICRQVANRMPNLREFAATHDLIFFVSGKKSSNGKMLFEECLKVNANSHLIDNEKEIDPTLLRNVKSIGVCGATSTPKWLMEKIHDHIQLLIKD | not soluble |
| MSLSTIDLHVHSNYSDGIHPPADLVKMAAERGLVAIAIADHDTVDGIDEALIAGARLGVEVVPAVELSAEHGRYRDMHILGYHLDHRDPRLVDMLAEFRINREIRGRAIVDKINQRLADGRKPLLSYDEVLNLAEGAVGRPHIGRMLIERGYARNMEDAFRRYLIPCNVPKRYIPAGDAITEIRRAGGVAVLAHPITVSDDRQVLRGIVSELVALGLDGIEVFNNMCYKDDMLFLEFLCRESGLLMTGGSDFHGFEDDVEIGSGREGHHHHHH | not soluble |
| MQSLDIKPTVGLIACCECGVAIEPNPANMCSGCLRSRVDITEGITRQCTIYMCKFCDRYFVPPSAWMRAELESKELLSICLKKLKPMLTKVRLTDACFVWTEAHSKRIKVKITIQKEVFTNTILQQAVVVEFTVHSQLCDDCRRAEAKDFWRACVQVRQRAEFKKTLFYLEQLLLKHSAHKECTGVKPVPTGIDFYFAKQQEARKFVDFLMTVLPCKYHYAQELVSHDTKNNTYDYKHTFCVEIVPICRDNIVCLPKKQAQQYGNMSQIVLCLRVSNVITLIDPNNLQLVDVQATNFWREPFDSLCGPKQLTEFYVLDVEPVNNFERKAGHGYVSKKHELADVWLVRSDQVGMSDAQSLSARTHIGHLLSPGDLVMAFDMKNCNVNNATFDAMNIDNVPDAIIVRKVFDRTRRTAKRQWKLKRLVVDGNIVGNETASVADEFQGFMEDIEEDALMREKINIYKDAEKGPNVDGDDAEDHPDAPTLAEMLDDLKFDDEEMKEAESAEDDEAMQE | not soluble |
| MGSDKIHHHHHHMLDPAGARVQIAKGRRDAADEPEDEDQMTRLEAFGDRKFPAAELILSSEGRGWDGIGTQVRRHPAGEIPVPVPDQMEVTLAIAGSQTGRVERRSGSAFQNTTARPGTLWFCPIGVTEDSIRITETLPMVQHVFLAKSQFDSLSELSSRSLSPASIAYLADVNDELVRQICQRIYREAQEETSSGKILIDCLAQSLVAHLVSDYSHDSRIHLGPDSGPSKLDDARLRRVLDYIYGNIDQDLSLSKLSEVACLSKHHFARAFREATGTPPYRFISERRLDHALNLLKDSRLSLAEIAYICRFSSQATFTRAFRRHVGTSPGEYRHLSRT | not soluble |
| YTDYEERRLIHEVPIIVPRGTGKTTLGSAIAEVGQIIDGEWGADIQLLAYSREQAGYLFNASRAMLSNEESLLHYMREADILRSTKQGILYETTNSLMSIKTSDYESLDGTNAHYNIFDEVHTYDDDFIKVVNDGSSRKRKNWITWYISTNGTKRDKLFDKYYNIWVDILDDKIINDSVMPWIYQLDDVSEIHDPDMWQKAMPLLGITTEKETIARDIEMSKNDPAQQAELMAKTFNLPVNNYLAYFSNEECKGWSDKFDESLFVGDDERNARCVIGIDLSDVNDICSISFMVVRGEERHYLNKKFMPRHTIETLPKELRDKYTEWELSGMLHVHELDYNDQAYIFEELRQFMSDNRILPVAVGYDRYNARELIRLFNDYYGDICHDIPQTVKSLSNPLKVYKEKAKMGKIIFDDPVATWNHANVRVKIDANNNIFPNKEKAKEKIDVFASQLDAFICYENFKEDLSYYFD | not soluble |
| MRLKKIGEWLNASPEDQDKQNADLLQTLSKLTGKQLDANALQMLQNLLQAVESKNVSGTDQLLTETEKIFSEAKTALSANDSASDINGALKSDKEQSNQENEVSEPAKELIYIQMFISQLVEGNKLTDLGNGNEAHAIYQNGDQFLSALEKKGVSQQLIQDLKQQIFTKAESSSKLYSMTASELKSFQSLMDQMSMLPQKGTKEWSLAETQLKAFLLSKSSESSQDFGKSVLTPLSQSSSSKNASDVSGSIQPVDSKSGLQMLFSGYRGIGGVQTLDLQQMSSDIPNAETKTVADQVINAWKQMKYTPFGRSTGSFTIRLNPEHLGFVTIKLTNENGMFQSKIIASSQSAKELLEQHLPQLKQSLPNMAVQIDRFTLPVQSGDQPIYGQLADEQKQQQEGQRQQRQKKQSNDFGDLLDEVSMVEMEEEE | soluble |
| MKDAKGIDKQWVILNELASKISKVRPLPEDVYSKLRIANNIITYYLLDEHADFEVLRDAEKEISKIQVILFGLADQDVSKEYLIKMGQALRNEIDLEFPLKQTAFNTEVKRKKGSETIRIKMPVEVQIEVLGELSEHNGVIFELSQDDEQKILVEGVKERITSALKDFSVIWKFQDNLEHHHHHH | not soluble |
| MKKVYIKTFGCQMNEYDSDKMADVLGSAEGMVKTDNPEEADVILFNTCSVREKAQEKVFSDLGRIRPLKEANPDLIIGVGGCVASQEGDAIVKRAPFVDVVFGPQTLHRLPDLIESRKQSGRSQVDISFPEIEKFDHIPPAKVDGGAAFVSIMEGCSKYCSFCVVPYTRGEEVSRPFEDVLTEIAGLAAQGVKEITLLGQNVNAYRGLMSDGEIADFALLLEYVHEVPGVERIRFTTSHPREFSQRIIDCYAKLPKLVSHLHLPVQSGSDRVLMAMKRGYTGLEYKSIIRKLRAIRPDLCLSSDFIIGFPGETEADFEQTLKLVRDCEFDFSFVFIYSPRPGTPAANLPDDTPHAEKVRRLEALNEVIEAKGYAINQSMVGTVQRVLVENVSKKDATMLAARTANNRVVNFAGHPRLLGRMIEVKITAAFPHSLAGEALTSESALEHHHHHH | soluble |
